Experimental findings from paper PMC12146848, “Deciphering meiotic chromatin organization by SYCP3” are described below.

The target of data set [1] is T1, SYCP3 (Mus musculus, UniProt P70281).
T1 sequence: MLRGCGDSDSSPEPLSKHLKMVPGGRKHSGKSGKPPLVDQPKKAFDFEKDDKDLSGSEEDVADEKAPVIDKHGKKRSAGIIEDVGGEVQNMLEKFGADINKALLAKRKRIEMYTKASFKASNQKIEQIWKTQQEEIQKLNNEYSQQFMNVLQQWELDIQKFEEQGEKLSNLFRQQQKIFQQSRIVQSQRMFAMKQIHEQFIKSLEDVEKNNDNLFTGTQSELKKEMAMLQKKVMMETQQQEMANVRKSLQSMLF
The data set can be described thus: EMSA; 0.2 uM probe, 1 ug SYCP3 in 15 ul; Beyotime GS008 Gel-Shift binding buffer (composition and pH not given), 15 ul, 1 h at room temperature, 4% polyacrylamide gel. To be noted: protein: recombinant; tags: C-terminal 6xHis; chain copies: 4; label: 3' biotin-dUTP added by TdT on both strands; blunt before 3' TdT labeling.

Data set [2] addresses T1, SYCP3. Put plainly: competition; 50-fold excess against labeled WT Probe; efficient competition; Beyotime GS008 Gel-Shift binding buffer (composition and pH not given), 15 ul, 1 h at room temperature, 4% polyacrylamide gel. To be noted: protein: recombinant; tags: C-terminal 6xHis; chain copies: 4; label: unlabeled; blunt.
Data set [3] has as its target T1, SYCP3. Put plainly: competition; 50-fold excess against labeled WT Probe; higher affinity than WT; Beyotime GS008 Gel-Shift binding buffer (composition and pH not given), 15 ul, 1 h at room temperature, 4% polyacrylamide gel. The conditions noted are these: protein: recombinant; tags: C-terminal 6xHis; chain copies: 4; label: unlabeled; blunt.
The target of data set [4] is T1, SYCP3. Put plainly: EMSA; stronger than WT Probe; Beyotime GS008 Gel-Shift binding buffer (composition and pH not given), 15 ul, 1 h at room temperature, 4% polyacrylamide gel. To be noted: protein: recombinant; tags: C-terminal 6xHis; chain copies: 4; label: 3' biotin-dUTP added by TdT on both strands; blunt before 3' TdT labeling.

B1: WT Probe (dsDNA)
DNA 1: ACAGTCCTGGTGATTGAACTCCGGCCCTGGGCATGCCAGGCGAGCACTCCACTCTTTGAG
DNA 2: CTCAAAGAGTGGAGTGCTCGCCTGGCATGCCCAGGGCCGGAGTTCAATCACCAGGACTGT
Consider B1, for which the binding result in the data set with SYCP3 [1] is “binds”.

B2: WT competitor (dsDNA)
DNA 1: B1 DNA 1
DNA 2: B1 DNA 2
For the molecule B2, the binding result with SYCP3 [2] is “binds”.

B3: Mut competitor (dsDNA)
DNA 1: GTGACTTCAACAGCCAGGTCTTAATTTCAAATGCATTGAATAGATGTCTTGTCTCCCAGA
DNA 2: TCTGGGAGACAAGACATCTATTCAATGCATTTGAAATTAAGACCTGGCTGTTGAAGTCAC
For the molecule B3, the binding result with SYCP3 [3] is on record as “binds”.

B4: Mut probe (dsDNA)
DNA 1: B3 DNA 1
DNA 2: B3 DNA 2
On to B4, for which the binding result with SYCP3 [4] is “binds”.
